Assay results taken from publication PMC5632138 (Journal of molecular biology, 2017).

Experiments:
Experiment in all cases: BLI
[1] = molecular target: T1, Full-length ETV4 Lys370Ala (UniProt P43268 1-484, Lys370Ala)
T1 sequence (looked up): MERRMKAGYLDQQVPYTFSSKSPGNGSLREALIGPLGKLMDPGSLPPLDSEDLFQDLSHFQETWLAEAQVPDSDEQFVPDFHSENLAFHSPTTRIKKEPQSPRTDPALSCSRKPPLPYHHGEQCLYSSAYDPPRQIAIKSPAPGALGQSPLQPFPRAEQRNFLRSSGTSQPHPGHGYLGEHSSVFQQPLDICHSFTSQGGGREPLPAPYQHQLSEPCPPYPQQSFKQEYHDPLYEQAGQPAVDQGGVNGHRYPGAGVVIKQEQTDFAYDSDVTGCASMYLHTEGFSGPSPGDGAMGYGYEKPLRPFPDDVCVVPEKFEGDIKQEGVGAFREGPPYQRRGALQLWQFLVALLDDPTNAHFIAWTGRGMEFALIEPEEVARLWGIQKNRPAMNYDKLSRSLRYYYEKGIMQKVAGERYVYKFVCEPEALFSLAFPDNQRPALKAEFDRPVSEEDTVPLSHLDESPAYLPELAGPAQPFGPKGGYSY

[2] = molecular target: T2, Full-length ETV4 Thr363Ala (UniProt P43268 1-484, Thr363Ala)
T2 sequence (looked up): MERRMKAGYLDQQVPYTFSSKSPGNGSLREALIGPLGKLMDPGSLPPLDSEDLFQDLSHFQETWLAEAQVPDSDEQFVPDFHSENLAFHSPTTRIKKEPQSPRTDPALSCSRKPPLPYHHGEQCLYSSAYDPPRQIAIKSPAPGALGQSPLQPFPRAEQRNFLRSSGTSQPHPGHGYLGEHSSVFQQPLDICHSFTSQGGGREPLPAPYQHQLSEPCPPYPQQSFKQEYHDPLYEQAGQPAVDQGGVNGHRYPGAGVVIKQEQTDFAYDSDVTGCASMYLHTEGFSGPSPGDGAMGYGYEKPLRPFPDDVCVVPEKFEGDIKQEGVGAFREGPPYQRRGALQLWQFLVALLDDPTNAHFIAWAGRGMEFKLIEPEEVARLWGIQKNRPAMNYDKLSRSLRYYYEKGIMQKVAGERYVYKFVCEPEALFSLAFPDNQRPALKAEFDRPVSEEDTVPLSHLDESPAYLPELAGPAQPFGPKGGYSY

JUN/FOS heterodimers = JUN/FOS heterodimers (UniProt P05412 1-331; P01100 1-380)
Chain of JUN/FOS heterodimers (P05412 whole entry, chain 1 of 2): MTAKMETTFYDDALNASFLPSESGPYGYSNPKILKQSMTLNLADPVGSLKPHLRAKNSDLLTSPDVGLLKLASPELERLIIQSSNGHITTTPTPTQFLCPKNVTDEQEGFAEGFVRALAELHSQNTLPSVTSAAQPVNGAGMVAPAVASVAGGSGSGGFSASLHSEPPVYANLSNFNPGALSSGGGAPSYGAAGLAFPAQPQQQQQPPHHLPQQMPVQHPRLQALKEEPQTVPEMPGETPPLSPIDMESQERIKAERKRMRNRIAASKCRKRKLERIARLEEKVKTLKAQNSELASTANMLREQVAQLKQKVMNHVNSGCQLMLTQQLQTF
Chain of JUN/FOS heterodimers (P01100 whole entry, chain 2 of 2): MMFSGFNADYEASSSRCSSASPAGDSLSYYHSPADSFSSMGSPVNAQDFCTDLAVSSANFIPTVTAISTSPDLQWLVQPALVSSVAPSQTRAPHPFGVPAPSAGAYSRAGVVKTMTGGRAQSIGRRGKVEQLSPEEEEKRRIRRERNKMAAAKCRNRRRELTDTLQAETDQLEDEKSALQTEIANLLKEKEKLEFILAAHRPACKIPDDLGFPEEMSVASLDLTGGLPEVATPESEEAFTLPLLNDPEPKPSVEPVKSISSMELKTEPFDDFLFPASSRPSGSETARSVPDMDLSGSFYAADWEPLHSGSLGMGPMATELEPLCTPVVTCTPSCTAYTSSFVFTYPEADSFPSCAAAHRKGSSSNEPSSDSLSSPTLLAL

Full-length FOS = Full-length FOS (UniProt P01100 1-380)
Chain of Full-length FOS (P01100 whole entry): as the sequence (P01100 whole entry, chain 2 of 2) above

[3] = molecular target: T3, Full-length ETV4 (ETV4^1–484) (UniProt P43268 1-484)
T3 sequence (looked up): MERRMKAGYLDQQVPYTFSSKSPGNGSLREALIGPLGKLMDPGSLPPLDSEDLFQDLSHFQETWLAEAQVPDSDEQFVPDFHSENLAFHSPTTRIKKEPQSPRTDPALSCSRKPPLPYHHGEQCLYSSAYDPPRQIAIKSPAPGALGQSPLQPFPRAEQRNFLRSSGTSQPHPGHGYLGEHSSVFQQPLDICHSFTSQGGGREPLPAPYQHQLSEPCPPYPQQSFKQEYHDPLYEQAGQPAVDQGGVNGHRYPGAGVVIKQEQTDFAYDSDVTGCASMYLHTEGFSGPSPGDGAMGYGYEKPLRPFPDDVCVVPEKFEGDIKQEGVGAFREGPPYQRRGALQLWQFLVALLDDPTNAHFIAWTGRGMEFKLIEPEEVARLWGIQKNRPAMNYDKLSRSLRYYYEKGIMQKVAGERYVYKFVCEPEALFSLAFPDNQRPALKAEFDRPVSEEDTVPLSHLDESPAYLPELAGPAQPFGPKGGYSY

B1: MED25 ACID (residues 391–553), biotinylated ligand for biolayer interferometry (domain or fragment, human, UniProt Q71SY5 391-553, looked up)
chain: GQQSVSNKLLAWSGVLEWQEKPKPASVDANTKLTRSLPCQVYVNHGENLKTEQWPQKLIMQLIPQQLLTTLGPLFRNSRMVQFHFTNKDLESLKGLYRIMGNGFAGCVHFPHTAPCEVRVLMLLYSSKKKIFMGLIPYDQSGFVNGIRQVITNHKQVQQQKLE
modifications: biotin (biotinylated; D-biotin added at the induction point)
binding result [1]: binds | binding result [2]: binds | Kd (JUN/FOS heterodimers): 5 nM | Kd (Full-length FOS): 9 nM | Kd [3]: 5 nM
